EP4491629A1 (Université de Lorraine, dated 2025)

Target: the molecule itself
Assay: size exclusion chromatography (Superdex 75); self-association

B1: Cricetulus griseus galectin-1 (wild-type), produced from the pCarONE vector (other)
chain: ACGLVASNLNLKPGECLKVRGEVAPDAKSFVLNLGKDSNNLCLHFNPRFNAHGDANTIVCNSKDNGAWGTEHREPAFPFQPGSTVEVCITFDQADLTIKLPDGHEFKFPNRLNMEAINYMAADGDFKIKCVAFE
notes: Lectin; recombinant from E. coli; The entries are about self-association (homodimer, printed as 2x16.6 kDa); also called Gal1 wild-type; Gal1; not shown: spacer arm and TEV protease cleavage site encoded by pCarONE
B1: binds.

B2: E16K mutant of Cricetulus griseus galectin-1 (other)
chain: ACGLVASNLNLKPGKCLKVRGEVAPDAKSFVLNLGKDSNNLCLHFNPRFNAHGDANTIVCNSKDNGAWGTEHREPAFPFQPGSTVEVCITFDQADLTIKLPDGHEFKFPNRLNMEAINYMAADGDFKIKCVAFE
notes: Recombinant from E. coli; tested for self-association by size exclusion chromatography; also called Gal1 E16K; Gal1 mutant E16K; not shown: spacer arm and TEV protease cleavage site encoded by pCarONEE16K
B2: binds.

B3: C131E mutant of Cricetulus griseus galectin-1 (other)
chain: ACGLVASNLNLKPGECLKVRGEVAPDAKSFVLNLGKDSNNLCLHFNPRFNAHGDANTIVCNSKDNGAWGTEHREPAFPFQPGSTVEVCITFDQADLTIKLPDGHEFKFPNRLNMEAINYMAADGDFKIKEVAFEELSSGVDLGTENLYFQS
notes: also called Gal1 C131E; Gal1 mutant C131E
B3: no binding.
